Source: article PMC5059719, “Tetrameric structure of the restriction DNA glycosylase R.PabI in complex with nonspecific double-stranded DNA” (Scientific Reports, 2016)
Numbering of substitutions follows the chain as printed. In names and notes the source's numbering stands.

Key:
[1] = target: R.PabI Y68F R70D mutant, residues 8-226 (Pyrococcus abyssi) (UniProt Q9V2B6)
[2] = target: the molecule itself; experiment: cell-based or functional assay
[3] = target: the molecule itself; experiment: crystal structure; R.PabI R32A E63A dimer co-crystallised with 20 bp blunt-ended nonspecific dsDNA (dsDNA:dimer 1:2) in 10 mM MES pH 6.0, 100 mM NaCl; sitting drop, 20 °C; one dimer in the asymmetric unit, tetramer = two dimers related by the crystallographic two-fold axis, sandwiching the dsDNA
[4] = target: R.PabI Y68F R70D D71R mutant, residues 8-226 (Pyrococcus abyssi) (UniProt Q9V2B6)

B1: R.PabI Y68F R70D mutant, residues 8-226 (enzyme)
chain: EASVSFENGKIVVRLPITRPTSKIRVKKIENGVGIPVSTRKKSFPSDENLRDYYIEWQISFADDGKYDYELSRMVRLAHEHGILTYNDIYELLKFADDVKSYLEDKGIRRESTNEELYGFNIYEDVYPVAKKELPSGEFIGIVLKHKQRAVGYQSMVYVCIPLTNVEPSLAGRVARRNEVVKYEVPVDLMKELLKAFIIASETHKNDIVKFLRSIIGTS
B1 was tested, and the DNA glycosylase activity relative to the Y68F control, 24 bp dsDNA substrate [1] was 127%, the DNA glycosylase activity relative to the Y68F control, 500 bp dsDNA substrate [1] was 76% and the DNA glycosylase activity relative to the Y68F control, 3000 bp dsDNA substrate [1] was 19%.

B2: R.PabI Y68F D71R mutant, residues 8-226 (enzyme, Pyrococcus abyssi, UniProt Q9V2B6 8-226, looked up)
chain: B1 chain with D63R, D64R
With B2 the “DNA glycosylase activity relative to the Y68F control, 24 bp dsDNA substrate” value [2] was 74%, the “DNA glycosylase activity relative to the Y68F control, 500 bp dsDNA substrate” value [2] was 34% and the “DNA glycosylase activity relative to the Y68F control, 3000 bp dsDNA substrate” value [2] was 19%.

B3: R.PabI R32A E63A double mutant, residues 8-226 (enzyme, Pyrococcus abyssi, UniProt Q9V2B6 8-226, looked up)
chain: B1 chain with R25A, E56A, F61Y, D63R
notes: R.PabI, type II restriction enzyme (restriction DNA glycosylase) of Pyrococcus abyssi, residues 8-226, with R32A and E63A; Cloned into the NdeI-BamHI site of pET26b; also called protomers A and B; source: E. coli Rosetta(DE3)pLysS, purified (heat treatment, heparin column, MonoS)
B3 was tested, and the “stoichiometry N” value [3] was 2.

B4: R.PabI Y68F R70D D71R mutant, residues 8-226 (enzyme)
chain: B1 chain with D64R
B4 showed a DNA glycosylase activity relative to the Y68F control, 24 bp dsDNA substrate [4] of 105%, a DNA glycosylase activity relative to the Y68F control, 500 bp dsDNA substrate [4] of 71% and a DNA glycosylase activity relative to the Y68F control, 3000 bp dsDNA substrate [4] of 40%.
